According to US20180214568A1 (US Dept. of Health and Human Services, published 2018):
Blank lines part the entries; values can stand above or below the binder they belong to.

Molecular target: T1, mouse CD56 (mouse, UniProt P13595 20-711, limits assumed)
T1 construct: the construct is not described
Assay: ELISA on coated mouse CD56 ectodomain, IgG titrated, OD405
Method: Protein was coated on ELISA plate wells at 50 ng/well in PBS at 4° C. overnight. After blocking of unbound surface with 2% non-fat dried milk in PBST, serially diluted antibody solutions were added, and incubated for 2 hours at 37° C. The bound human antibodies were detected with goat anti-human Fc specific IgG conjugated with horseradish peroxidase.

T1 sequence (P13595 20-711 limits assumed): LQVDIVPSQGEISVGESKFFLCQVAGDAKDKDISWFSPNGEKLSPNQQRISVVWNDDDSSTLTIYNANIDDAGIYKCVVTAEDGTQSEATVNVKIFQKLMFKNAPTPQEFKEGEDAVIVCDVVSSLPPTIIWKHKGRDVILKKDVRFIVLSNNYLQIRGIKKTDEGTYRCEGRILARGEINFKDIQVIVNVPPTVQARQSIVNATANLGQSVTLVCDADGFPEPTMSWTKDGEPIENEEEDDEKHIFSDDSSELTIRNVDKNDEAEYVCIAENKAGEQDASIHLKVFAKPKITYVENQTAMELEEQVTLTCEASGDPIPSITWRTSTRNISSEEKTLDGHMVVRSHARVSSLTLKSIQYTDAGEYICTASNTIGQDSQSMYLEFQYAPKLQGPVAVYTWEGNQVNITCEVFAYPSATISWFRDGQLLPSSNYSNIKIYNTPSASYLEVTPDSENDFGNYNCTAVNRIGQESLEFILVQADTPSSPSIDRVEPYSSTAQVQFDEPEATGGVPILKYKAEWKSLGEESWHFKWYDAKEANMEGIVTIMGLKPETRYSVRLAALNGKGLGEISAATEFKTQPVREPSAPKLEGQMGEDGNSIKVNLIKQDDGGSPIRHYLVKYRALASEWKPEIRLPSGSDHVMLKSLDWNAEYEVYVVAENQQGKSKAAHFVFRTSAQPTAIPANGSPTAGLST

- EC50 (read off the curve): ~0.08 nM
B1: m906 IgG1 (antibody, V domains shown)
VH: EVQLVQSGAEVKKPGSSVKVSCKASGGTFTGYYMHWVRQAPGQGLEWMGWINPNSGGTNYAQKFQGRVTMTRDTSISTAYMELSRLRSDDTAVYYCARDLSSGYSGYFDYWGQGTLVTVSS
VL: DVVMTQSPLSLPVTPGEPASISCRSSQSLLHSNGYNFLDWYLQKPGQSPQLLIYLGSNRASGVPDRFSGSGSGTDFTLKISRVEADDVGVYYCMQSLQTPWTFGHGTKVEIKR

- binding result: no binding (tested: 1000 nM)
B2: m900 IgG1 (antibody, V domains shown)
VH: not shown
VL: EIVLTQSPATLSLSPGERATLSCRASQSVSSYLAWYQQKPGQAPRLLIYDASNRATGIPARFSGSGSGTDFTLTISSVQAEDVGVYYCQQYHGTPTFGQGTKVEIKR
